PMC3859963 (Molecular cancer therapeutics, 2013)
Square brackets hold non-standard residues; d marks the D form. Ends that are not written are not given here.

Molecular target: CD44s (UniProt P16070-12 21-361)
Test: flow cytometry on cells

fold increase of binding versus vector only cells: 1.5 fold
Binder: [dK][dI][dK][dM][dV][dI][dS][dW][dK]G (also: 5(6)-FAM label, position not given here) [5(6)-FAM-HYD1]
